This is an account of results in publication PMC9532426, “Autophagy induction promoted by m6A reader YTHDF3 through translation upregulation of FOXO3 mRNA”.

This series addresses T1, YTHDF3 (mouse, UniProt Q8BYK6 1-585).
T1 sequence: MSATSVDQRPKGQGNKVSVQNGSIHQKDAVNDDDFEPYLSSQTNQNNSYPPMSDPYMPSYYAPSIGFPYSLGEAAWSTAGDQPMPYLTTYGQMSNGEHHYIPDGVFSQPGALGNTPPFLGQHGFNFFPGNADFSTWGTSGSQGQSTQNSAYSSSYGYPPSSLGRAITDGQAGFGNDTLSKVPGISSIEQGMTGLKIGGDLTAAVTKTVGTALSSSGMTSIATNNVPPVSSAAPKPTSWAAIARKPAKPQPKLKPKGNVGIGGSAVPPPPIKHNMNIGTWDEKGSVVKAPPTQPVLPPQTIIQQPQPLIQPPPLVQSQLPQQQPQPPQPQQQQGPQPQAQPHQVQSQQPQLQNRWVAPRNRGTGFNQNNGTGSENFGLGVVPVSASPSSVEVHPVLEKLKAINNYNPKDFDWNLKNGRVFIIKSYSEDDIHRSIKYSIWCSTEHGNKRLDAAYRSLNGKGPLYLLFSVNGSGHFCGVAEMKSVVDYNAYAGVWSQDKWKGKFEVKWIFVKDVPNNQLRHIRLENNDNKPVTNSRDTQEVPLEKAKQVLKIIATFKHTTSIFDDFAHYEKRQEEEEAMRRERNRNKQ
Kind of series: EMSA; LightShift Chemiluminescent RNA EMSA kit; 20 pmol RNA, 6 ug YTHDF3, room temperature 30 min; 6% TBE gel, 0.5x TBE; buffer salt and pH not stated. Particulars: protein: commercial; label: 5' biotin.

B1: Foxo3-CDS-m6A-biotin-RNAProbe 1 (ssRNA)
RNA: GUGACUUGGACCUGGAC
modifications: m6A at A4, A10, A16 (from text sites 2151, 2158, 2163 nt; the modified probe line is not in the material)
In the case of B1, the binding result is listed as “binds”.
